Data: patent US12540945B2, “Probe and method for identifying host cell protein impurities” (Regeneron Pharmaceuticals, Inc., priority 2021, dated 2026)

Test: Hydrolysis of polysorbate 80 by spiked LAL, oleic acid release by LC-MS
Type: biochemical
Conditions: 5 ppm LAL, 0.1% PS80, pH 5.5, after 2 days of incubation

B1: LAL: lysosomal acid lipase; recombinant CHO LAL generated in-house, spiked into PS80 samples (protein, UniProt P38571 77-399, looked up)
Lysosomal acid …: GPKPVVFLQHGLLADSSNWVTNLANSSLGFILADAGFDVWMGNSRGNTWSRKHKTLSVSQDEFWAFSYDEMAKYDLPASINFILNKTGQEQVYYVGHSQGTTIGFIAFSQIPELAKRIKMFFALGPVASVAFCTSPMAKLGRLPDHLIKDLFGDKEFLPQSAFLKWLGTHVCTHVILKELCGNLCFLLCGFNERNLNMSRVDVYTTHSPAGTSVQNMLHWSQAVKFQKFQAFDWGSSAKNYFHYNQSYPPTYNVKDMLVPTAVWSGGHDWLADVYDVNILLTQITNLVFHESIPEWEHLDFIWGLDAPWRLYNKIINLMRKYQ
modifications: recombinant, CHO-expressed
notes: lysosomal acid lipase; recombinant CHO LAL generated in-house, spiked into PS80 samples
- oleic acid released (hydrolysis of PS80): 3 µg/mL
